Assay [1] deals with T1, Latrophilin-3 ADHD-related variant A247S (Lphn3^A247S) (human).
T1 chain: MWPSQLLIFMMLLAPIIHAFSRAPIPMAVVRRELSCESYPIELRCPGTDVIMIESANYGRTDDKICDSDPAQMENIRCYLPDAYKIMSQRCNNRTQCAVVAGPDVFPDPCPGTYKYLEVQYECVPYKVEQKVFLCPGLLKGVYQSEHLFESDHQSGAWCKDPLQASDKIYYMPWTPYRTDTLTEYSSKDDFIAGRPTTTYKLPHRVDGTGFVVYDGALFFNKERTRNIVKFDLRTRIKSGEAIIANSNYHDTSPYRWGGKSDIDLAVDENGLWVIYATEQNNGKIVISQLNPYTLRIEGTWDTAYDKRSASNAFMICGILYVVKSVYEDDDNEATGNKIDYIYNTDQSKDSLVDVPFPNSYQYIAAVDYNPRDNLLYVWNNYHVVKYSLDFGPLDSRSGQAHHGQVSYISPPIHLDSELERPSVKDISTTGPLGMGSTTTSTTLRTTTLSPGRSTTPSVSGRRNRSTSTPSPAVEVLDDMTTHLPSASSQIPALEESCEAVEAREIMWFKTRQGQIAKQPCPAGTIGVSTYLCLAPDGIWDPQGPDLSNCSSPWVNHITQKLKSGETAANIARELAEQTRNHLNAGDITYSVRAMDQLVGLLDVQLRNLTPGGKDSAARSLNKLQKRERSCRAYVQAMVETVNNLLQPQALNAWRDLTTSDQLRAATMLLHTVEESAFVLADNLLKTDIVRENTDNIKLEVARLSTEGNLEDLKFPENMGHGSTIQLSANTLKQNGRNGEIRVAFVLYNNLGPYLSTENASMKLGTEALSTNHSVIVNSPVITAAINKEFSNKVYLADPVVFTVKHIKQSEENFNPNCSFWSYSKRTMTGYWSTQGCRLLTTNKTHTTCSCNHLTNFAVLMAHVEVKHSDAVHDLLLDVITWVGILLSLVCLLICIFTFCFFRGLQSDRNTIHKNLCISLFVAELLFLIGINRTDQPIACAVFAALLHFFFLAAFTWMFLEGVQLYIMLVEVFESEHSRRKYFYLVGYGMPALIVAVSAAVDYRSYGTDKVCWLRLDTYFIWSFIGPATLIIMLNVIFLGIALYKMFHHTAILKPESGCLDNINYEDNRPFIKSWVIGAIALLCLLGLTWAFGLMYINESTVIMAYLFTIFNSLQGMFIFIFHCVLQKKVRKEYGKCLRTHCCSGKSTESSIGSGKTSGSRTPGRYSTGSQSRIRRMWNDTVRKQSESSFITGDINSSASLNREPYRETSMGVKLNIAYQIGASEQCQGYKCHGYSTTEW

The target in assay [2] is T2, Latrophilin-3 ADHD-related variant T783M (Lphn3^T783M) (human).
T2 chain: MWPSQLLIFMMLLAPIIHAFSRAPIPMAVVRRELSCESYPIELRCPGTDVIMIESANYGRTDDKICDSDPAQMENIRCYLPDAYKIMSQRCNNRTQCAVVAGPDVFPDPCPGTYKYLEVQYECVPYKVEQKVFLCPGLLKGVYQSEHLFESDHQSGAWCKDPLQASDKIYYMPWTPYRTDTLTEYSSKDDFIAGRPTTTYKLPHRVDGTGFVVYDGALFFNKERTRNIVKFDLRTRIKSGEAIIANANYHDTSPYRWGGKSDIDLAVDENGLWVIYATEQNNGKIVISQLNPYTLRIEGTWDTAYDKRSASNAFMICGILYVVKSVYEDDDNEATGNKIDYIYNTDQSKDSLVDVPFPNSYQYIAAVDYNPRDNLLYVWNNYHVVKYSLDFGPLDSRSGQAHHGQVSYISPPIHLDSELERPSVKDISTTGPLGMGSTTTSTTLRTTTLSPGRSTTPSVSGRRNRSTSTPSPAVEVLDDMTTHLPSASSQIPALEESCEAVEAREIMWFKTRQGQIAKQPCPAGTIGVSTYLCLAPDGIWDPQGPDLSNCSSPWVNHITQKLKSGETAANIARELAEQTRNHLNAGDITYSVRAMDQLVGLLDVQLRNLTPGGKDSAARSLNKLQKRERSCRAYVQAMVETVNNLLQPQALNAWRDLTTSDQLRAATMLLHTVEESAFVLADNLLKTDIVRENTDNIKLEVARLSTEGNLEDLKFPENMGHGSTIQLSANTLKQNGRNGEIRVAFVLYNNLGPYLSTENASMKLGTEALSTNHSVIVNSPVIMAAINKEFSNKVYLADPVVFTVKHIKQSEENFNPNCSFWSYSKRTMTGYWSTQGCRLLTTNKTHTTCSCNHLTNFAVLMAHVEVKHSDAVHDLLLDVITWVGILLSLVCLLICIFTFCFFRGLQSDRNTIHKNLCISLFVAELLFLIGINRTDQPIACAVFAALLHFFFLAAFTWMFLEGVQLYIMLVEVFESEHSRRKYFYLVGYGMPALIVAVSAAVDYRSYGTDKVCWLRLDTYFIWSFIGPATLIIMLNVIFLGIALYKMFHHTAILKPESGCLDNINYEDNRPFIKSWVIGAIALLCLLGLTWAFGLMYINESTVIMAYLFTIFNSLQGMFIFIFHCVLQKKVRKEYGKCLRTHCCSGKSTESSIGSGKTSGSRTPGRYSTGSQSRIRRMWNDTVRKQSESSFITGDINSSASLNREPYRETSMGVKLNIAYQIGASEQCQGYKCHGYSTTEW

B1: soluble FLRT3 extracellular domain fused to the constant fraction of human IgG (FLRT3^ECD-Fc) (Fc fusion)
chain: KSCPSVCRCDAGFIYCNDRFLTSIPTGIPEDATTLYLQNNQINNAGIPSDLKNLLKVERIYLYHNSLDEFPTNLPKYVKELHLQENNIRTITYDSLSKIPYLEELHLDDNSVSAVSIEEGAFRDSNYLRLLFLSRNHLSTIPWGLPRTIEELRLDDNRISTISSPSLQGLTSLKRLVLDGNLLNNHGLGDKVFFNLVNLTELSLVRNSLTAAPVNLPGTNLRKLYLQDNHINRVPPNAFSYLRQLYRLDMSNNNLSNLPQGIFDDLDNITQLILRNNPWYCGCKMKWVRDWLQSLPVKVNVRGLMCQAPEKVRGMAIKDLNAELFDCKDSGIVSTIQITTAIPNTVYPAQGQWPAPVTKQPDIKNPKLTKDHQTTGSPSRKTITITVKSVTSDTIHISWKLALPMTALRLSWLKLGHSPAFGSITETIVTGERSEYLVTALEPDSPYKVCMVPMETSNLYLFDETPVCIETETAPLRMYNPTTTLNREQEKEPYKNPNLP
modifications: HA/Flag epitopes left out; isoform assumed; signal peptide removed and GPS autoproteolysis expected
Consider B1, for which the Kd in assay [1] and in assay [2] was 1.22 nM throughout.

Broadly, the Kd is the free concentration of one partner at which half of the binding sites on the other are occupied at equilibrium, for simple one-to-one binding. The low end stands for a tighter complex, the high end for a looser complex.

Source of the values: publication PMC9135631 (2022).
